Measured values as given in the supplement of paper PMC10567573.
± gives the standard deviation.

Assay: protein stability index of a GFP-peptide fusion (GPS, HEK-293T) (PSI 1-6); higher = more stable
[1] = treatment: DMSO, c terminus: a fixed tail appended
[2] = treatment: MLN4924 1 uM, 8 h, c terminus: a fixed tail appended
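Also: 24-mer peptide tiles fused after GFP, lentivirally expressed, FACS-sorted into six equal bins by GFP/DsRed ratio, decoded by Illumina sequencing, PSI is the read-weighted mean bin number.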

| Sequence | protein stability index [1] | protein stability index [2] | protein stability index (treatment: DMSO, c terminus: native) | protein stability index (treatment: MLN4924 1 uM, 8 h, c terminus: native) |
| --- | --- | --- | --- | --- |
| GGGTPSLASPHTVAAVLEAVAQTA [RSAD1] | 3.46 ± 0.52 | 3.54 ± 0.3 |  |  |
| GGPPAGPGGVYAGPEPPPVYTNLS [JUNB] | 4.15 ± 0.12 | 4.56 ± 0.099 |  |  |
| GGSSGQVTSNGSIGRDPPAETQPQ [CLPTM1] | 5.47 ± 0.24 | 5.42 ± 0.21 |  |  |
| GGTDPHGYHQVPGSAAPGSPLAAD [FOXJ1] | 5.11 ± 0.099 | 5.234 ± 0.051 |  |  |
| GGTEEKSSLLMSCLACDTWAVIL [RPAIN] |  |  | 2.7 ± 0.86 | 2.4 ± 0.84 |
| GHGAEQAAAFPTEDSRTSKESMSE [EHMT1] | 5.69 ± 0.2 | 5.19 ± 0.62 |  |  |
| GHLEVVRYLVGEHQADLEVANRHG [FEM1A] | 3.4 ± 0.48 | 3.24 ± 0.41 |  |  |
| GHSSSRDDYPSRGYSDRDGYGRDR [RBMX] | 4.87 ± 0.18 | 4.88 ± 0.16 |  |  |
| GHVEVARLLLDSGAQVNMPADSFE [ANKRD17] | 3.88 ± 0.091 | 3.83 ± 0.24 |  |  |
| GIAHKIEAGNEFKNIFGTPEFVAP [DAPK3] | 3.44 ± 0.61 | 3.64 ± 0.39 |  |  |
| GILEHVDSASPVEDTSNDESSILG [M1AP] | 5.56 ± 0.26 | 5.48 ± 0.4 |  |  |
| GKGRTASPINSPARGTPSPKRMPS [FSD1] | 5.13 ± 0.25 | 5.05 ± 0.32 |  |  |
| GKKDVSHSSPVDLKIPQVRGMDLS [LCOR] | 4.32 ± 0.31 | 4.24 ± 0.36 |  |  |
| GKNPDVDTSFLPDRDREEEENRLR [FAM50A] | 5.26 ± 0.11 | 5.49 ± 0.38 |  |  |
| GKTYCKRDYVRLFGIKCAKCQVGF [ISL2] | 2.03 ± 0.19 | 2.17 ± 0.23 |  |  |
| GLLETEPLQGTDEDAVASADFSSM [TPD52L1] | 5.34 ± 0.3 | 5.29 ± 0.37 |  |  |
| GLNHSLSYDVALHRTRLQDLRVLV [SCARA5] | 2.2 ± 0.34 | 2.13 ± 0.1 |  |  |
| GLQEEPVEGFRVTLVDEGDLYNWE [CDC34] | 4.26 ± 0.14 | 4.15 ± 0.34 |  |  |
| GLQVEGLRRRLEELQQELSLKDQE [LRRC45] | 4.47 ± 0.17 | 4.73 ± 0.16 |  |  |
| GLSAPHSRQIPAPQGAVLVQREKD [KISS1] | 5.34 ± 0.19 | 5.19 ± 0.087 |  |  |
| GLSSSSARFLSRSIPSLQSEYVHY [CDC14A] | 2.97 ± 0.53 | 3.02 ± 0.21 |  |  |
| GLVYRLNRFRVEISFHFEVTNHNI [TRIM43] | 3.33 ± 0.66 | 3.35 ± 0.8 |  |  |

| Sequence | protein stability index [1] | protein stability index [2] | protein stability index (treatment: DMSO, c terminus: native) | protein stability index (treatment: MLN4924 1 uM, 8 h, c terminus: native) |
| --- | --- | --- | --- | --- |
| GNPFLDVPQALSATTYKHGVLTRK [PSD2] | 4.08 ± 0.3 | 4.18 ± 0.4 |  |  |
| GQCGENLAWASYDQTGKEVADRWY [GLIPR2] | 2.68 ± 0.31 | 3.13 ± 0.26 |  |  |
| GRASRFLQSISWDPEDFEDAWKRP [TLE6] | 3.15 ± 0.21 | 3.13 ± 0.31 |  |  |
| GRLSMAAADIVNFLTVGSVLQMWH [ZBTB22] | 3.33 ± 0.17 | 3.4 ± 0.48 |  |  |
| GRPSMVWLSANPCPHCGDRTFYDP [PRAME] | 2.24 ± 0.26 | 2.33 ± 0.41 |  |  |
| GRWVNENCRLQSPYFSPSASFHHK [CBY2] | 2.89 ± 0.19 | 2.86 ± 0.31 |  |  |
| GSRISVSRSTSFRGGMGSGGLATG [KRT18] | 3.65 ± 0.19 | 4.04 ± 0.69 |  |  |
| GSVYFWATPRQVPSLQHLCRMSIR [WSB1] | 3.05 ± 0.2 | 2.7 ± 0.043 |  |  |
| GVIQSVIGWKTVRMYPFQIHSIAL [CDS2] | 2.81 ± 0.34 | 2.94 ± 0.35 |  |  |
| GVMSAYAMCVRYDGVEVDDSYCDA [ADAMTSL2] | 3.05 ± 0.15 | 2.91 ± 0.23 |  |  |
| GYPPFCSETPQETYRKVMNWKETL [STK38L] | 2.88 ± 0.29 | 3.05 ± 0.37 |  |  |
| GYTFGQDISETFNHANGLTLVSRA [PPP2CA] | 3.26 ± 0.3 | 3.19 ± 0.28 |  |  |
| HASGDASYSAGDSGDAAAQPAFTG [EPB41L3] | 5.32 ± 0.21 | 5.21 ± 0.21 |  |  |
| HAVSTCHFCVDDTKLLSGSYDCTV [WDR88] | 2.46 ± 0.26 | 2.44 ± 0.33 |  |  |
| HDIVRFLVQLDDYRFASAGDDGIV [WDR41] | 2.21 ± 0.061 | 2.2 ± 0.25 |  |  |
| HDRNMDWVSTQLQATCNVHKSAFN [FADS1] | 3.22 ± 0.29 | 3.46 ± 0.2 |  |  |
| HELGHVFNMLHDNSKPCISLNGPL [ADAMTS4] | 3 ± 0.49 | 2.93 ± 0.28 |  |  |
| HFAEEERSKYDYLMILRRVVNEST [TENT5C] | 2.55 ± 0.26 | 2.86 ± 0.37 |  |  |
| HGHLILHSMHKYQPRIHLVRAAQL [TBX6] | 2.1 ± 0.29 | 2.07 ± 0.27 |  |  |
| HGNQSAGEDQAFGDWLLTANGSEI [SLC22A15] | 4.56 ± 0.34 | 4.67 ± 0.18 |  |  |
| HHFNSSHLEIDDMYTPAYGDFDFD [MYORG] | 4.34 ± 0.11 | 4.23 ± 0.24 |  |  |
| HHGGDYKHWREWGSHAQTSQIQSI [CRYBA1] | 3.1 ± 0.14 | 3.19 ± 0.26 |  |  |

| Sequence | protein stability index [1] | protein stability index [2] | protein stability index (treatment: DMSO, c terminus: native) | protein stability index (treatment: MLN4924 1 uM, 8 h, c terminus: native) |
| --- | --- | --- | --- | --- |
| HLEDWLEKRAKRLSSAPSSRAEPI [ZMAT5] | 4.26 ± 0.78 | 3.58 ± 0.081 |  |  |
| HMVRESKIMEAESQKATRECEKSA [FAN1] | 5.29 ± 0.3 | 5.24 ± 0.14 |  |  |
| HPDSWRAYPFYWAWLPQAKVPFSQ [PI4K2A] | 2.5 ± 0.37 | 2.02 ± 0.94 |  |  |
| HPVFYQGTYSQALNDAKRELRFLL [FAF2] | 2.26 ± 0.36 | 2.15 ± 0.14 |  |  |
| HRERVAMHYQMSVTLKYEIKKLIY [JAGN1] | 2.71 ± 0.49 | 2.92 ± 0.45 |  |  |
| HRGLLTMQLKSPMPSSTTQKDSYQ [SPAG8] | 3.87 ± 0.25 | 4 ± 0.21 |  |  |
| HRQSFGTNSDVLAQQFALMAPLLF [DCAF4] | 2.31 ± 0.28 | 2.36 ± 0.27 |  |  |
| HRRELESSGAGSSPPAAPCPPPPG [ZBED3] | 5.12 ± 0.29 | 5.24 ± 0.16 |  |  |
| HTEDFQKEEGTVNGASWHTVAGSL [CPXM2] | 4.63 ± 0.069 | 4.76 ± 0.38 |  |  |
| HTHRAHTVVPLDDATQEYKEKLQK [TRIM39] | 5.39 ± 0.2 | 5.3 ± 0.35 |  |  |
| HTTLQCLAARVIVNHRIYYKGHIP [FEM1C] | 2.43 ± 0.17 | 2.43 ± 0.25 |  |  |
| HVGWLLVRKHPAVKEKGSTLDLSD [SCD] | 2.3 ± 0.26 | 2.48 ± 0.45 |  |  |
| IAATELEKEESRREAEKQNYLAEH [TNNI2] | 5.3 ± 0.25 | 5.37 ± 0.26 |  |  |
| IAELLEVFDLRMMVANILNNEAFM [RHOBTB2] | 3.36 ± 0.2 | 2.98 ± 0.55 |  |  |
| ICQKTATKKRKTFDSSRQRAEGTD [ZC2HC1A] | 4.8 ± 0.1 | 4.67 ± 0.53 |  |  |
| ICSLICLLIYTVKIRRFNKAKPEP [TMEM192] | 2.24 ± 0.52 | 2.44 ± 0.63 |  |  |
| IDEVRTQYEEIALKSKAEAEALYQ [KRT71] | 4.77 ± 0.29 | 5.01 ± 0.26 |  |  |
| IDVEALQVAFGSLYRDDVLIKPSR [GMCL1] | 2.37 ± 0.16 | 2.48 ± 0.37 |  |  |
| IEELEREAERKIIEENITSAAPSN [SRPK2] | 5.34 ± 0.15 | 5.17 ± 0.25 |  |  |
| IEETYSKAMAKLSKLASNGTPMGT [FCHO1] | 3.4 ± 0.073 | 3.78 ± 0.29 |  |  |
| IEKEYQPHVIVSTTGPNPFTTLTD [ADD1] | 3.74 ± 0.25 | 3.9 ± 0.23 |  |  |
